Source: patent US20180134794A1 (Regeneron, published 2018)

Target: human MET (c-Met, hepatocyte growth factor receptor), endogenous on human cell lines (human, UniProt P08581 25-1390)
Assay: cell-based or functional assay
For % Inhibition (HEK293/SRE-Luc Blocking Activity, 1 h mAb pre-bind) in this document: test concentration or dose not given here.

Sequence of human MET (c-Met, hepatocyte growth factor receptor), endogenous on human cell lines (P08581 25-1390 limits assumed, form in doubt): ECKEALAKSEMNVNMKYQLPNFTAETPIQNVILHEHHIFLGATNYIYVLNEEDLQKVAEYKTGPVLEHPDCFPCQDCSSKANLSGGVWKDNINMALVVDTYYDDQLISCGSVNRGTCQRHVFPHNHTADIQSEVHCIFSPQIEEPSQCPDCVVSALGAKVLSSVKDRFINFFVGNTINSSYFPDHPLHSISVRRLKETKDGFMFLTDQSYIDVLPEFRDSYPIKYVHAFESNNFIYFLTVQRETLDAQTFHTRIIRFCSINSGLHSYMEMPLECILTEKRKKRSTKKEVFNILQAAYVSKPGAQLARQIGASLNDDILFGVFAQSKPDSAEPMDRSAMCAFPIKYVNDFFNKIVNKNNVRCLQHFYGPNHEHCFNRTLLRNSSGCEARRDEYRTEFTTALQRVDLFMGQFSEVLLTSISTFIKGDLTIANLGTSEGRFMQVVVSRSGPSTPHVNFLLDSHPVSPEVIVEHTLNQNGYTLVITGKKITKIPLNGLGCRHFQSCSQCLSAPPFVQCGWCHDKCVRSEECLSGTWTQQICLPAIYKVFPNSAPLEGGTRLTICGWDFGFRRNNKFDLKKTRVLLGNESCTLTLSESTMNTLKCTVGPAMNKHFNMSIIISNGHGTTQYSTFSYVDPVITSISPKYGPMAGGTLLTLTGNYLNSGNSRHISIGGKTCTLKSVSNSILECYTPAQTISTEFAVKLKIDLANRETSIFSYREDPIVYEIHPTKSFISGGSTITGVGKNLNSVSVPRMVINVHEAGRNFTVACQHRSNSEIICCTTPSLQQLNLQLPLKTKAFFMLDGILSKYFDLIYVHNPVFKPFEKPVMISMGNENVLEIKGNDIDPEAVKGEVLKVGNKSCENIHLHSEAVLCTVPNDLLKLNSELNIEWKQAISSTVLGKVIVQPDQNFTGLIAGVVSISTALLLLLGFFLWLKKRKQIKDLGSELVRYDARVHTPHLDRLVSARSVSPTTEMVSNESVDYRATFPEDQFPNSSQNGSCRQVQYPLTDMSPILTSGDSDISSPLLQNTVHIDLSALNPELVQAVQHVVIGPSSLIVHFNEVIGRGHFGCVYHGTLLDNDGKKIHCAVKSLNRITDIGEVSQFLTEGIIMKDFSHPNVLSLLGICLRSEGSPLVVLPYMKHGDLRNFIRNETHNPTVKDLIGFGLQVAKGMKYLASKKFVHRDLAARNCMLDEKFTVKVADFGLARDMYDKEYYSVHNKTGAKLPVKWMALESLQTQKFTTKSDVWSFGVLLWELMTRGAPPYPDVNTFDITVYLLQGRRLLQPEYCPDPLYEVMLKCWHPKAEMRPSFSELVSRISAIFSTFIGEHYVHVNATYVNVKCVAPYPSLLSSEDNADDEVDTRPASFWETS

B1: H4H13291P2 (antibody, human IgG4, V domains shown)
VH: QVQLVESGGGVVQPGGSLRLSCAASGFTFSGYGMHWVRQAPGKGLEWMAVIWYDGSNDYYPDSVKGRFTISRDNSKNTLYLQMNSLRVEDTAVYYCARDAWDLLRSFDYWGQGTLVTVSS
VL: not shown
  % Inhibition (HEK293/SRE-Luc Blocking Activity, 1 h mAb pre-bind): 61%
  EC50 (Ligand (HGF)-Independent HEK293/SRE-Luc Activation): 0.39 nM
  Fold Response (Ligand (HGF)-Independent HEK293/SRE-Luc Activation): 2.7 fold
  IC50 (HEK293/SRE-Luc Blocking Activity, 1 h mAb pre-bind): 0.13 nM

B2: H4H13295P2 (antibody, human IgG4, V domains shown)
VH: QVQLVESGGGVVQPGRSLRVSCVVSGFTFSSFGMHWVRQAPDKGLEWVAVIWYDGSNDYYSDSVKGRFTISRDNSKNTLFLQMNRLRAEDTAVYYCARANNWNRFDAFDLWGQGTMVTVSS
VL: not shown
  % Inhibition (HEK293/SRE-Luc Blocking Activity, 1 h mAb pre-bind): 70%
  EC50 (Ligand (HGF)-Independent HEK293/SRE-Luc Activation): 0.3 nM
  Fold Response (Ligand (HGF)-Independent HEK293/SRE-Luc Activation): 2.8 fold
  IC50 (HEK293/SRE-Luc Blocking Activity, 1 h mAb pre-bind): 0.055 nM

B3: H4H14638D (bispecific antibody, human IgG4, V domains shown)
VH 1: QVQLVESGGGVVQPGRSLRLSCAASGFTFSNFGMHWVRQAPGKGLEWVAGIWFDGSNKNYIDSVKGRFTISRDNSKNTLYLQMNSLRAEDTAVYYCAREGYDSGTDYIPYDIFDIWGQGTMVTVSS
VH 2: EVQLVESGGGLVQPGGSLRLSCAASGFIVTTNYMTWLRQAPGKGLEWVSLIYSSGHTYYADSVKGRFTISRHNSKNTLYLQMDSLRAEDTAVYYCASAFAADVFDIWGQGTMVTVSS
VL: not shown
  % Inhibition (HEK293/SRE-Luc Blocking Activity, 1 h mAb pre-bind): 79%
  EC50 (Ligand (HGF)-Independent HEK293/SRE-Luc Activation): 5.9 nM
  Fold Response (Ligand (HGF)-Independent HEK293/SRE-Luc Activation): 2.6 fold
  IC50 (HEK293/SRE-Luc Blocking Activity, 1 h mAb pre-bind): 1.1 nM

B4: H4H16445D (bispecific antibody, human IgG4, V domains shown)
VH 1: B1 VH
VH 2: B3 VH 2
VL: not shown
  % Inhibition (HEK293/SRE-Luc Blocking Activity, 1 h mAb pre-bind): 81%
  EC50 (Ligand (HGF)-Independent HEK293/SRE-Luc Activation): 1 nM
  Fold Response (Ligand (HGF)-Independent HEK293/SRE-Luc Activation): 4.3 fold
  IC50 (HEK293/SRE-Luc Blocking Activity, 1 h mAb pre-bind): 0.52 nM

B5: H4H14641D (bispecific antibody, human IgG4, V domains shown)
VH 1: QVQLVESGGGVVQPGRSLRLSCSASGFSFSHFGMHWVRQVPGGGLEWVTSIWFDGSNRYYADSLKGRFTISRDNSKNTLYLEMNSLRAEDTAVYYCVREGILGTTNPYDVFDVWGQGTMVTVSS
VH 2: B3 VH 2
VL: not shown
  % Inhibition (HEK293/SRE-Luc Blocking Activity, 1 h mAb pre-bind): 75%
  EC50 (Ligand (HGF)-Independent HEK293/SRE-Luc Activation): 84 nM
  Fold Response (Ligand (HGF)-Independent HEK293/SRE-Luc Activation): 4.4 fold
  IC50 (HEK293/SRE-Luc Blocking Activity, 1 h mAb pre-bind): 2.7 nM

B6: H4H14637D (bispecific antibody, human IgG4, V domains shown)
VH 1: QVQLVESGGGVVQPGTSLRLSCVASGFTFRNFGMHWVRQAPGKGLEWVANIWFDGSNENYVESIQGRFTISRDNSKNTLNLQMNSLRAEDSAVYYCVREGILGTTNPYDAFDVWGQGTMVTVSS
VH 2: B3 VH 2
VL: not shown
  % Inhibition (HEK293/SRE-Luc Blocking Activity, 1 h mAb pre-bind): 73%
  EC50 (Ligand (HGF)-Independent HEK293/SRE-Luc Activation): 4.1 nM
  Fold Response (Ligand (HGF)-Independent HEK293/SRE-Luc Activation): 2.1 fold

B7: H4H14636D (bispecific antibody, human IgG4, V domains shown)
VH 1: EVQLVESGGGLVQPGGSLRLSCAASGFIFSNYEMNWVRQAPGKGLEWISYITSSGNMKYYADSVKGRFTISRDNDKNSLYLQMSSLRVEDTAVYYCVRGGRFLEWLTYYVMVVWGQGTTVTVSS
VH 2: B3 VH 2
VL: not shown
  % Inhibition (HEK293/SRE-Luc Blocking Activity, 1 h mAb pre-bind): 74%
  EC50 (Ligand (HGF)-Independent HEK293/SRE-Luc Activation): 0.28 nM
  Fold Response (Ligand (HGF)-Independent HEK293/SRE-Luc Activation): 2.8 fold

B8: H4H16446D (bispecific antibody, human IgG4, V domains shown)
VH 1: QVQLVESGGGVVQPGRSLRLSCAVSGFTFSSYGMHWVRQAPGKGLEWVANIWYDGTNDYYPYSVKGRFTISRDNSQNTLYLQMNSLRAEDTAVYYCAREDFINYRSFDYWGQGTLVTVSS
VH 2: B3 VH 2
VL: not shown
  % Inhibition (HEK293/SRE-Luc Blocking Activity, 1 h mAb pre-bind): 83%
  EC50 (Ligand (HGF)-Independent HEK293/SRE-Luc Activation): 1.4 nM
  Fold Response (Ligand (HGF)-Independent HEK293/SRE-Luc Activation): 4 fold
  IC50 (HEK293/SRE-Luc Blocking Activity, 1 h mAb pre-bind): 1 nM

B9: H4H16449D (bispecific antibody, human IgG4, V domains shown)
VH 1: QVQLVESGGGVVQPGRSLRLSCAASGFTFSSFAMHWVRQAPGKGLEWVAVIWYDGSNDYYAASVKGRFTISRDNSKNTLYLEMNRLRAEDTAVYHCARDNWNYWGGMDVWGQGTTVTVSS
VH 2: B3 VH 2
VL: not shown
  % Inhibition (HEK293/SRE-Luc Blocking Activity, 1 h mAb pre-bind): 85%
  EC50 (Ligand (HGF)-Independent HEK293/SRE-Luc Activation): 0.42 nM
  Fold Response (Ligand (HGF)-Independent HEK293/SRE-Luc Activation): 4.2 fold
  IC50 (HEK293/SRE-Luc Blocking Activity, 1 h mAb pre-bind): 0.32 nM

B10: H4H13302P2 (antibody, human IgG4, V domains shown)
VH: B3 VH 1
VL: not shown
  % Inhibition (HEK293/SRE-Luc Blocking Activity, 1 h mAb pre-bind): 45%
  Fold Response (Ligand (HGF)-Independent HEK293/SRE-Luc Activation): 1.8 fold
  IC50 (HEK293/SRE-Luc Blocking Activity, 1 h mAb pre-bind): 1.6 nM

B11: H4H16447D (bispecific antibody, human IgG4, V domains shown)
VH 1: QVQLVESGGGVVQPGRSLRLSCAASGFTFSSYAMHWVRQAPGRGLEWVAVIWHDGDVEYYVDSVKDRFTISRDNSKSTLYLQMNSLRAEDTALYYCAREAWDLLRPFDYWGQGTLVTVSS
VH 2: B3 VH 2
VL: not shown
  % Inhibition (HEK293/SRE-Luc Blocking Activity, 1 h mAb pre-bind): 76%
  EC50 (Ligand (HGF)-Independent HEK293/SRE-Luc Activation): 1.4 nM

B12: H4H16448D (bispecific antibody, human IgG4, V domains shown)
VH 1: QVQLVESGGGVVQPGRSLRLSCVASGFSFSNFGMHWVRQAPGKGLEWVAIIWYDGSNKYYSDSVKGRFTISRDNSKNTLYLQMNSLRVDDTAVYYCARFDRWKFDAFDIWGQGTMVTVSS
VH 2: B3 VH 2
VL: not shown
  % Inhibition (HEK293/SRE-Luc Blocking Activity, 1 h mAb pre-bind): 87%
  EC50 (Ligand (HGF)-Independent HEK293/SRE-Luc Activation): 0.91 nM
  Fold Response (Ligand (HGF)-Independent HEK293/SRE-Luc Activation): 4.3 fold
  IC50 (HEK293/SRE-Luc Blocking Activity, 1 h mAb pre-bind): 0.62 nM

B13: H4H13312P2 (antibody, human IgG4, V domains shown)
VH: B3 VH 2
VL: not shown
  % Inhibition (HEK293/SRE-Luc Blocking Activity, 1 h mAb pre-bind): 48%
  EC50 (Ligand (HGF)-Independent HEK293/SRE-Luc Activation): 0.12 nM

B14: H4H13325P2 (antibody, human IgG4, V domains shown)
VH: EVQLLESGGGWVQPGGSLRLSCAASGFAFSNYAMNWVRQTPGKGLEWVSVISSSGGNTYYADSVKGRFAISRDNSRDTLHLQMNRLRVEDTAVYYCAKEIRPYYDLSYYYGMDVWGQGTTVTVSS
VL: not shown
  % Inhibition (HEK293/SRE-Luc Blocking Activity, 1 h mAb pre-bind): 69%
  EC50 (Ligand (HGF)-Independent HEK293/SRE-Luc Activation): 0.19 nM
  Fold Response (Ligand (HGF)-Independent HEK293/SRE-Luc Activation): 4.3 fold
  IC50 (HEK293/SRE-Luc Blocking Activity, 1 h mAb pre-bind): 0.013 nM

B15: H4H13313P2 (antibody, human IgG4, V domains shown)
VH: B5 VH 1
VL: not shown
  % Inhibition (HEK293/SRE-Luc Blocking Activity, 1 h mAb pre-bind): 47%
  Fold Response (Ligand (HGF)-Independent HEK293/SRE-Luc Activation): 1.2 fold
  IC50 (HEK293/SRE-Luc Blocking Activity, 1 h mAb pre-bind): 2.3 nM

B16: H1H13301P2 (antibody, V domains shown)
VH: B6 VH 1
VL: not shown
  % Inhibition (HEK293/SRE-Luc Blocking Activity, 1 h mAb pre-bind): 42%
  Fold Response (Ligand (HGF)-Independent HEK293/SRE-Luc Activation): 1.4 fold
  IC50 (HEK293/SRE-Luc Blocking Activity, 1 h mAb pre-bind): 3.3 nM

B17: H4H13301P2 (antibody, human IgG4, V domains shown)
VH: B6 VH 1
VL: not shown
  % Inhibition (HEK293/SRE-Luc Blocking Activity, 1 h mAb pre-bind): 40%
  Fold Response (Ligand (HGF)-Independent HEK293/SRE-Luc Activation): 1.6 fold
  IC50 (HEK293/SRE-Luc Blocking Activity, 1 h mAb pre-bind): 1.5 nM

B18: H4H13309P2 (antibody, human IgG4, V domains shown)
VH: QVQLVQSGTEVKEPGASVKVSCKASGYSFTTYGISWLRQAPGQGLEWMGWISTYNGDTISAQMLQDRVTLTADTSTRTAYMELRSLRSDDTAVYYCARGHEYDSLVYSYWGQGTLVTVSS
VL: not shown
  % Inhibition (HEK293/SRE-Luc Blocking Activity, 1 h mAb pre-bind): 77%
  EC50 (Ligand (HGF)-Independent HEK293/SRE-Luc Activation): 0.39 nM
  Fold Response (Ligand (HGF)-Independent HEK293/SRE-Luc Activation): 9.2 fold
  IC50 (HEK293/SRE-Luc Blocking Activity, 1 h mAb pre-bind): 0.2 nM

B19: H1H13316P2 (antibody, V domains shown)
VH: EVQLVESGGGLVQPGGSLRLSCAASGFTFRSYVMSWFRQAPGKGLEWVSGMSGSGGSTSYADSVKGRFTISRDNSKNTLYLLMNSLRTEDTAVYYCAKENGANWNYGYYGMDVWGQGTTVTVSS
VL: not shown
  % Inhibition (HEK293/SRE-Luc Blocking Activity, 1 h mAb pre-bind): 86%
  Fold Response (Ligand (HGF)-Independent HEK293/SRE-Luc Activation): 1.7 fold
  IC50 (HEK293/SRE-Luc Blocking Activity, 1 h mAb pre-bind): 0.04 nM

B20: H4H13316P2 (antibody, human IgG4, V domains shown)
VH: B19 VH
VL: not shown
  % Inhibition (HEK293/SRE-Luc Blocking Activity, 1 h mAb pre-bind): 74%
  EC50 (Ligand (HGF)-Independent HEK293/SRE-Luc Activation): 0.047 nM
  Fold Response (Ligand (HGF)-Independent HEK293/SRE-Luc Activation): 2.3 fold
  IC50 (HEK293/SRE-Luc Blocking Activity, 1 h mAb pre-bind): 0.0078 nM

B21: H4H13319P2 (antibody, human IgG4, V domains shown)
VH: B9 VH 1
VL: not shown
  % Inhibition (HEK293/SRE-Luc Blocking Activity, 1 h mAb pre-bind): 67%
  EC50 (Ligand (HGF)-Independent HEK293/SRE-Luc Activation): 0.18 nM
  Fold Response (Ligand (HGF)-Independent HEK293/SRE-Luc Activation): 4.8 fold
  IC50 (HEK293/SRE-Luc Blocking Activity, 1 h mAb pre-bind): 0.052 nM

B22: H4H13306P2 (antibody, human IgG4, V domains shown)
VH: EVQLVESGGGLVQPGTSLRLSCAASGFTFDDYAMHWVRQAPGKGLEWVSGITWNSYNIDYADSVKGRFTISRDNAKNSLYLQMNSLRAEDTALYYCAKDDDYSNYVYFDYWGQGTLVTVSS
VL: not shown
  EC50 (Ligand (HGF)-Independent HEK293/SRE-Luc Activation): 0.013 nM
